Experimental data taken from publication doi:10.1101/2022.07.30.502139.

Molecular target: OTLD1-RFP (Arabidopsis)
Test: FRET or BRET

B1: LSH10-GFP (natural protein)
chain: MSSPRERGKSLMESSGSEPPVTPSRYESQKRRDWNTFGQYLKNQRPPVPMSHCSCNHVLDFLRYLDQFGKTKVHVPGCMFYGQPEPPAPCTCPLRQAWGSLDALIGRLRAAYEENGGPPETNPFASGAIRVYLREVRECQAKARGIPYKKKKKKKPTPEMGGGREDSSSSSSSFSFS
- %AB-FRET (donor dequenching): 13%
